Laboratory results reported in US20090098108A1.

Key:
GLP-1 peptide = GLP-1 peptide (UniProt P01275)
[1] = biological target: wt GLP-1 mimetibody construct (GLP-1 MMB), IgG1 scaffold (UniProt P01275)
[2] = biological target: GLP-1 receptor on Rinm cells; experiment: cell-based or functional assay

Chain of GLP-1 peptide (P01275 98-127): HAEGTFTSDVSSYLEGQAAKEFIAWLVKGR
Chain of wt GLP-1 mimetibody construct (GLP-1 MMB), IgG1 scaffold (P01275 whole entry, looked up): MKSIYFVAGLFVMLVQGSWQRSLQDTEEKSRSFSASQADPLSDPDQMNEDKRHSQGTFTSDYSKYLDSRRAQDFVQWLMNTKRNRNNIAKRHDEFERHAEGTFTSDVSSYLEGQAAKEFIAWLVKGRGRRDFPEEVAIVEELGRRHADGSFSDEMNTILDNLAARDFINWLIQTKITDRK

concentration dependent cAMP activity, EC50 (Rinm cells) [2]	Substance	DPP-IV cleavage assay (intact peptide by GLP-1 Active ELISA) (GLP-1 peptide)	DPP-IV cleavage assay (intact MMB by GLP-1 Active ELISA) [1]
–	DPP-IV (R&D Systems)	The GLP-1 MMB was significantly more resistant to cleavage by DPP-IV, relative to the GLP-1 peptide	The GLP-1 MMB was significantly more resistant to cleavage by DPP-IV, relative to the GLP-1 peptide
0.4 nM	GLP-1 peptide (from UniProt P01275 98-127)	–	–
11 nM	wt GLP-1 mimetibody construct (GLP-1 MMB), IgG1 scaffold (from UniProt P01275 98-128) (Fc fusion)	–	–
